Article doi:10.1101/2024.11.13.623448

How the values were obtained:
[1] = biological target: nucleosome core particle: Cse4, H2A, H2B, H4 histone octamer wrapped with Widom 601 DNA (S. cerevisiae | K. lactis) (UniProt P36012); test: optical trap bead-microtubule binding assay; His6-NCPs (40 nM) held on polystyrene beads by anti-His6 antibody; 10 nM OA or 20 nM Mif2, 10 nM 2D-MIND, 10 nM Ndc80c, 5 nM Dam1c free in solution; bead brought to the dynamic plus end of a surface-anchored microtubule and released from the trap; 1x BRB80, 1 mM GTP, 16 uM tubulin, room temperature
[2] = biological target: nucleosome core particle: Cse4, H2A, H2B, H4 histone octamer wrapped with chimeric centromeric DNA (CCEN) (S. cerevisiae | K. lactis) (UniProt P36012); test: as above

Mif2-linker-(27-392)MBP (from UniProt P35201 1-549) (natural protein)
percent of beads that bound microtubules [1]: > 78% | percent of beads that bound microtubules [2]: > 78%
